Laboratory results from patent publication US20260144882A1 (BIO THERA SOLUTIONS, published 2026).
Positions count from the first letter of the chain named.

T1: human Nectin-4 extracellular antigen hNectin-4-His (human, UniProt Q96NY8 32-349)
T1 construct: C-terminal 8xHis tag included
T1 sequence: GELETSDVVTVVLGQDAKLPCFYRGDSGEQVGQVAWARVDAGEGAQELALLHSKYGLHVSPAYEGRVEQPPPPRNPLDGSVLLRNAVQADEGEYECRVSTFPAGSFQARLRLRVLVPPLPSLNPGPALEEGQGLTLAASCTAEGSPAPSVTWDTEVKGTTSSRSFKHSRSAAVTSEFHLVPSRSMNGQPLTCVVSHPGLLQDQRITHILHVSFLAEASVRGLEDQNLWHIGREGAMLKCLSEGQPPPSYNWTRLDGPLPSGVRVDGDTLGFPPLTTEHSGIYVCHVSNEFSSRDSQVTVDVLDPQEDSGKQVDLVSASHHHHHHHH

T2: human Nectin-4, full length on cells (human, UniProt Q96NY8 32-510)
T2 construct: whole, on cells; T-47D cells positive for Nectin-4 expression; also called Nectin-4 on T-47D cells; CHO-Nectin-4
T2 sequence (looked up): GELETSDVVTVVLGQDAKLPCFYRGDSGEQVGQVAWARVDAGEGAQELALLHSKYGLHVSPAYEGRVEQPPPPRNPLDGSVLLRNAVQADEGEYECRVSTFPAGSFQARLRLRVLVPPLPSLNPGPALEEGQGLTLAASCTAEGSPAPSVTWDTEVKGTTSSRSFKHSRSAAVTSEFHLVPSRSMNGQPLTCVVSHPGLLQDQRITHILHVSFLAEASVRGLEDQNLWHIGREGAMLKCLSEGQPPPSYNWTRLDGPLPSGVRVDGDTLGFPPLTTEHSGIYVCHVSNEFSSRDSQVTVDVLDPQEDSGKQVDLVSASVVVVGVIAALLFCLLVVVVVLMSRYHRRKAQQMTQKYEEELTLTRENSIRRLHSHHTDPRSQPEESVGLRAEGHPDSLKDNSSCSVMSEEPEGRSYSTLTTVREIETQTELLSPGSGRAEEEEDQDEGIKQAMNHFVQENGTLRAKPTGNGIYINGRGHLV

B1: antibody 1F3-1G11 (antibody, human IgG1, kappa, V domains shown)
VH: EVQLVESGGGLVQPGGSLRLSCAASGYSFTGYGMSWVRQAPGKGLEWVSGISPSGGTIGYADSVKGRFTISRDNSKNTLYLQMNSLRAEDTAVYYCARAELLAFDVYTASDYWGQGTLVTVSS
VL: DIQMTQSPSSLSASVGDRVTITCRASQGISSYLAWYQQKPGKAPKLLIYAASSLQSGVPSRFSGSGSGTDFTLTISSLQPEDFATYYCQQHYTTPPTFGQGTKVEIKR
B2: antibody 1F3-1E1 (antibody, human IgG1, kappa, V domains shown)
VH: B1 VH with Y27F, T30D, G31D, G33A, G50I, S52Y, S54T, G56S, I58N, G59Y
VL: B1 VL
B3: antibody 1F3-2B1 (antibody, human IgG1, kappa, V domains shown)
VH: B1 VH with S28N, T30D, G31N, G33A, S52K, S54D, G55S, G56A, I58T, G59Y
VL: B1 VL
B4: antibody 1F3-1B1 (antibody, human IgG1, kappa, V domains shown)
VH: B1 VH with Y27F, S28T, T30G, G31T, S52K, S54G, G55D, G56S, I58T, G59Y
VL: B1 VL
B5: antibody 1F3-2F3 (antibody, human IgG1, kappa, V domains shown)
VH: EVQLVESGGGLVQPGGSLRLSCAASGFNFSDYGMSWVRQAPGKGLEWVSRIDWDGGNTRYADSVKGRFTISRDNSKNTLYLQMNSLRAEDTAVYYCARAELLAFDVYTASDYWGQGTLVTVSS
VL: B1 VL
B6: antibody 1F3-2E8 (antibody, human IgG1, kappa, V domains shown)
VH: B1 VH with T30S, G31D, G50W, G55K, T57S, I58A, G59S
VL: B1 VL
B7: antibody 10F4-1 (antibody, human IgG1, kappa, V domains shown)
VH: EVQLVESGGGLVQPGGSLRLSCAASGDSFTNYWMSWVRQAPGKGLEWVSGISQGGSYAYYADSVKGRFTISRDNSKNTLYLQMNSLRAEDTAVYYCAREYSDVVDYVSVRTPLDYWGQGTLVTVSS
VL: B1 VL
B8: antibody 10F4-5 (antibody, human IgG1, kappa, V domains shown)
VH: EVQLVESGGGLVQPGGSLRLSCAASGFIFDGYDMSWVRQAPGKGLEWVSVIKDHGGYKFYADSVKGRFTISRDNSKNTLYLQMNSLRAEDTAVYYCAREYSDVVDYVSVRTPLDYWGQGTLVTVSS
VL: B1 VL
B9: antibody 10F4-3 (antibody, human IgG1, kappa, V domains shown)
VH: EVQLVESGGGLVQPGGSLRLSCAASGFSFGDFAMSWVRQAPGKGLEWVSVIDGHTAYNSYADSVKGRFTISRDNSKNTLYLQMNSLRAEDTAVYYCAREYSDVVDYVSVRTPLDYWGQGTLVTVSS
VL: B1 VL
B10: antibody 1B4 (antibody, human IgG1, kappa, V domains shown)
VH: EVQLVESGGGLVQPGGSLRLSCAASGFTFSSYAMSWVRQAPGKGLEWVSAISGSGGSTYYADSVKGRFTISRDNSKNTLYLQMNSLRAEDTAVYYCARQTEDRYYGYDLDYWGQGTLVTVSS
VL: B1 VL
B11: antibody 10A4 (antibody, human IgG1, kappa, V domains shown)
VH: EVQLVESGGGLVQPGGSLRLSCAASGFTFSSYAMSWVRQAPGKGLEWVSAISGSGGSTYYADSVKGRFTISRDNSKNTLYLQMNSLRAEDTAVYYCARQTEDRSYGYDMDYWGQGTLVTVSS
VL: B1 VL
B12: antibody 1G7 (antibody, human IgG1, kappa, V domains shown)
VH: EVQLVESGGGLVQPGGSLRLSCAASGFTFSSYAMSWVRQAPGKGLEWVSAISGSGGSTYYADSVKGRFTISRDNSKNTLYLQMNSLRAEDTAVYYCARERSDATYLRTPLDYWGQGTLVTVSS
VL: B1 VL
B13: antibody 1G12 (antibody, human IgG1, kappa, V domains shown)
VH: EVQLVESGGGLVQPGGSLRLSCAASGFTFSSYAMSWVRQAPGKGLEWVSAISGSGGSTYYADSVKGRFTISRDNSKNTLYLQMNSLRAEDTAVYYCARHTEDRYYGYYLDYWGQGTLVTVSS
VL: B1 VL

target: T1, human Nectin-4 extracellular antigen …; assay: ELISA, coated hNectin-4-His
Source text: (§1) The binding activity of the antibodies was detected by ELISA.

| EC50 [µg/mL] | Binder |
| --- | --- |
| 0.007 | B1 |
| 0.017 | B2 |
| 0.014 | B3 |
| 0.016 | B4 |
| 0.011 | B5 |
| 0.009 | B6 |

target: T2, human Nectin-4, full length on cells; assay: flow cytometry, T-47D cells, antibody bound on ice, 0 h at 37 C
Protocol: (§2) In this assay, the relative amount of antibodies remaining on the cell surface after co-incubation at 37° C. for a certain period of time was detected by FACS to reflect the endocytosis efficiency. The procedures are briefly described as follows: T-47D cells (human ductal breast cancer cells, derived from the Cell Bank of Chinese Academy of Sciences, Cat.No. TCHu 87); the antibodies of interest were adjusted to 10 µg/mL and co-incubated with the cells on ice for 1 h; the cells were washed 3 times with pre-cooled PBS, and then placed at 37° C. and incubated for 0 h, 2 h and 4 h; 0.2% N₃Na was added to stop the endocytosis reaction; the cells were washed with PBS thrice, followed by the addition of the PE-labeled anti-human Fc secondary antibody (Invitrogen 12-4998-82); the cells were incubated at 4° C. for 30 min; the red fluorescence signal was detected on a flow cytometer.

| MFI (mean fluorescence intensity) 0 h [MFI] | Binder |
| --- | --- |
| 60500 | B1 |
| 73400 | B2 |
| 58600 | B7 |
| 63400 | B8 |
| 59400 | B3 |
| 65300 | B4 |
| 69000 | B5 |
| 58200 | B6 |
| 61200 | B9 |

target: T1, human Nectin-4 extracellular antigen …; assay: SPR, antibody on Protein A chip, hNectin-4-His analyte, 1:1 fit
Source text: (§3) In this study, the affinity of the antibodies for the human Nectin-4 extracellular antigen was detected by surface plasmon resonance (SPR) technique (BIAcore: GE Healthcare, T200).

| Kd [nM] | koff [s⁻¹] | kon [M⁻¹ s⁻¹] | Binder |
| --- | --- | --- | --- |
| 5.33 | 0.0032 | 600000 | B10 |
| 6.71 | 0.00232 | 346000 | B11 |
| 16.7 | 0.00631 | 377000 | B12 |
| 8.61 | 0.00464 | 539000 | B13 |

target: T2, human Nectin-4, full length on cells; assay: flow cytometry, T-47D cells, antibody bound on ice, 0 h at 37 C; remark: another data set of the same source
Protocol: as §2

| MFI (mean fluorescence intensity) 0 h [MFI] | Binder |
| --- | --- |
| 108000 | B10 |
| 107000 | B11 |

target: T1, human Nectin-4 extracellular antigen …; assay: ELISA, coated hNectin-4-His; remark: another data set of the same source
Source text: as §1

| EC50 [µg/mL] | Binder |
| --- | --- |
| 0.025 | B10 |
| 0.041 | B11 |
| 0.022 | B12 |
| 0.073 | B13 |

target: T1, human Nectin-4 extracellular antigen …; assay: SPR, antibody on Protein A chip, 1:1 fit
Source text: as §3

| Kd [nM] | koff [s⁻¹] | kon [M⁻¹ s⁻¹] | Binder |
| --- | --- | --- | --- |
| 0.815 | 0.00115 | 1.41e+06 | B1 |
| 0.141 | 0.000212 | 1.51e+06 | B2 |
| 0.545 | 0.000226 | 415000 | B7 |
| 0.399 | 0.000137 | 343000 | B8 |
| 0.241 | 0.000317 | 1.32e+06 | B3 |
| 0.17 | 0.000204 | 1.2e+06 | B4 |
| 0.37 | 0.000519 | 1.4e+06 | B5 |
| 0.872 | 0.00102 | 1.17e+06 | B6 |
| 0.352 | 0.000122 | 346000 | B9 |
